Data set [1] has as its target T1, biliverdin reductase (Rattus norvegicus, UniProt P46844).
T1 sequence (P46844 3-295): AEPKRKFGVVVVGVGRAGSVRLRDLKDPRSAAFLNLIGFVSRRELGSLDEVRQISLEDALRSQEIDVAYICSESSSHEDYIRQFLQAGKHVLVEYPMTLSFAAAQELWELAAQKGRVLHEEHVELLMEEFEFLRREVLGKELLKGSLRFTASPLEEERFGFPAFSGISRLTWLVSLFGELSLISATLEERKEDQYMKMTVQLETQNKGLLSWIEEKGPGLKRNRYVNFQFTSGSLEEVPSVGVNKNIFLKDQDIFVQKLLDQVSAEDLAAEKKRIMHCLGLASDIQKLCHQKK
Kind of data set: Autophosphorylation of biliverdin reductase, in blot method with [γ^32P]-ATP. To be noted: PVDF bound, denatured/renatured. It counts as biochemical. An excerpt:
The ability of the reductase to phosphorylate itself was examined using the in blot method of Ferrell and Martin (Ferrell et al., Methods Enzymol. 200:430-435 (1991), which is hereby incorporated by reference). Purified wild type or mutant proteins were used.
The ability of the reductase to phosphorylate itself was examined using the in blot method of Ferrell et al., Methods Enzymol. 200:430-435 (1991), which is hereby incorporated by reference. Following electrophoresis on 12.5% SDS-PAGE plus thioglycolate (0.002%), the protein was transferred to PVDF membrane (Millipore). The blot was denatured for I h at room temperature in 7 M guanidine-HCl (pH 8.3) containing 50 mM Tris-base, 50 mM dithiothreitol and 2 mM EDTA and the bound protein was allowed to renature overnight at 4° C. then incubated at room temperature for 4 h in freshly prepared labeling mix containing 10 μCi/ml [γ^32P]-ATP. The membrane first with 30 mM Tris-HCl (pH 7.4) then for 10 min each with 250 ml of the following: with 30 mM Tris-HCl (pH 7.4) twice; with the same buffer containing 0.5% (v/v) NP-40 once; with the Tris buffer twice; with 1 M KOH once; with the Tris buffer, twice . The membrane was blotted, dried, wrapped in plastic wrap, and exposed for autoradiography.

Data set [2] is described as follows: Reductase activity of BVR purified from rat liver. It counts as biochemical. To be noted: purified to homogeneity. On the procedure:
BVR was purified from rat liver to homogeneity (3,000 nmol bilirubin/min/mg protein) as described before (O'Carra et al., J. Biochem. 125:110P (1971), which is hereby incorporated by reference), with modifications (Huang et al., J. Biol. Chem. 264:7844-7849 (1989), which is hereby incorporated by reference). Activity was determined at pH 8.7 with NADPH in Tris-HCl with […] in potassium phosphate buffer. The substrate concentration was 5 μM. The rate of activity was measured by the increase in 450 nm absorbance at 25° C. The purified reductase, which was judged to be homogenous by SDS-PAGE, stained with Coomasie Brilliant Blue (Sigma), was used for preparation of polyclonal antibody in New Zealand rabbits (O'Carra et al., J. Biochem. 125:110P (1971), which is hereby incorporated by reference). Protein concentration was determined by Bradford's method (Bradford, Anal. Biochem. 72:248-254 (1976), which is hereby incorporated by reference).

Data set [3] deals with histone III-S. Kind of data set: BVR kinase activity, 32P incorporation into exogenous substrate. It is filed as biochemical. As for the experimental part: (§1) Incubation time was 8 min at 30° C.
For data set [4], the system named is PKC (a mixture containing equal amounts of isozymes α, β and γ). Kind of data set: Overlay assay for PKC binding by rat BVR. The note with it: 2 μg rat liver BVR, 500 ng/ml PKC. As for the experimental part:
The physical interaction of BVR with PKC was assessed using an overlay assay based on that described by Wolf and Sahyoun (J. Biol. Chem. 261:13327-13331 (1986), which is hereby incorporated by reference) with known modifications (Chapline et al., J. Biol. Chem. 268:6858-6861 (1993), which is hereby incorporated by reference). Purified rat liver BVR (2 μg) was subjected to SDS-PAGE and transferred to nitrocellulose membrane. The membrane was blocked, washed, and then overlaid with a solution containing 500 ng/ml of PKC (a mixture containing equal amounts of isozymes α, β and γ) (Promega) in TBS containing 10 mg/ml BSA, 20 μg/ml phosphatidylserine, 1 mM EGTA, 1.2 mM CaCl2, 10 μg/ml leupeptin and 10 μg/ml aprotinin. After incubation for 1 h at room temperature, the blot was extensively washed with the PBS containing the same supplements as the overlay solution, but lacking the kinase mixture. The protein on the membrane was fixed by incubation in 0.5% formaldehyde in PBS and then reactive aldehyde groups were blocked by incubation in 2% glycine in TBS for 20 min at room temperature. The membrane was then washed 3 times with TBS and was cut in two, one half was subjected to Western blot analysis using a 1:1000 dilution of anti-PKC for 2 h at room temperature as the primary antibody, while the second half was probed with rabbit anti-rat BVR as detailed above for Western blotting. […]

Data set [5] deals with PKC. Kind of data set: Effect of BVR and peptides on PKC activity (MBP substrate, kinetic analysis). It counts as biochemical. On the procedure: FIGS. 11A-C are graphs depicting the role of BVR in increasing protein kinase C activity. FIG. 11A depicts the dose-dependence of PKC activity in the presence of BVR or PKC inhibitor peptide (“PKCI”) in an assay system containing 0.5 μg/ml PKC, 50 μM unlabeled ATP, 5 μCi[^32γP]-ATP and 1 mg/ml MBP and carried out as described infra. FIGS. 11B-C are the kinetic analyses of PKC activity carried out with respect to MBP (FIG. 11B) and with respect to ATP (FIG. 11C) in the presence or absence of 50 μM BVR.
FIGS. 12A-C are graphs illustrating the effect of various rBVR fragments on PKC activity. Protein kinase C was incubated at 30° C. with buffer or with the indicated peptides (50 μM) for 15 min prior to addition to a kinase assay using MBP as substrate. FIG. 12A depicts the relative activity for each sample normalizing to that of the PKC and buffer control value. FIGS. 12B-C are the kinetic analyses of PKC with respect to substrate MBP (FIG. 12B) and ATP (FIG. 12C) in the presence or absence of BVR peptide fragments (50 μM). BVR1 peptide corresponds to SEQ. ID. No. 34 and BVR2 peptide corresponds to SEQ. ID. No. 19.
as §1

The target of data set [6] is T1, biliverdin reductase. Kind of data set: Western blot analysis of phosphorylation of purified rat liver BVR. It is filed as biochemical. To be noted: individual anti-phosphotyrosine, -serine, -threonine antibodies. On the procedure:
2D-IEF was performed essentially as detailed previously (Huang et al., J. Biol. Chem. 264:7844-7849 (1989), which is hereby incorporated by reference). The first dimension separation of 3.5 μg of the reductase was carried out by isoelectric focusing (Righetti et al., J Chromatogr. 98:271-321 (1974), which is hereby incorporated by reference) using ampholytes with a 4-6.5 pH range. Electrofocusing was carried out for 17 h at 400 volts then for an additional hour at 800 volts. After focusing, the second dimension separation was carried out using 12.5% SDS polyacrylamide gel. […] The secondary antibody was goat anti-rabbit horseradish peroxidase (Zymed) at a 1:1000 dilution. Detection was carried out using the ECL reagent kit (NEN) according to the manufacturer's instructions. Phosphorylation molecular weight markers were used (Zymed). Soybean trypsin inhibitor (pI 4.55), β-lactoglobin A (pI 5.13), bovine carbonic anhydrase (pI 5.85), and human carbonic anhydrase B (pI 6.57) were used as IEF standards. Immunoblotting was performed by the method of Towbin et al, Proc. Nat. Acad. Sci. USA 76:4350-4354 (1979), which is hereby incorporated by reference. Primary and secondary antibody treatments and staining for peroxidase with 4-chloro-1 -naphthol were performed as described previously (Huang et al., J. Biol. Chem. 264:7844-7849 (1989), which is hereby incorporated by reference).

Data set [7] concerns MBP. To be noted: ^32P incorporation.
Protocol: Kinase reactions were carried out based on the assay as described by Roskoski (Roskoski, Methods Enzymol. 99:3-6 (1983), which is hereby incorporated by reference) in a 50 μl volume in a reaction buffer consisting of 20 mM Tris HCl (pH 7.4) containing 10 mM MgCl2, 50 mM unlabeled ATP, 5 μCi [γ^32 P]-ATP and 1 mg/ml substrate. Substrates used were prepared as 10 mg/ml stock in 0.2 M Tris-HCl (pH 7.4) and stored at -20° C. The substrates utilized were MBP and histone III-S (Sigma) and E. coli expressed purified preparations of full length rat HO-1 and HO-2 (McCoubrey et al., J. Biol. Chem. 272:12568-12574 (1997), which is hereby incorporated by reference). The substrate/reaction buffer was incubated at 30° C. for 4 min prior to the addition of 5 μl of enzyme source (2 mg/ml BVR, 0.5 μg/ml PKC) or enzyme vehicle (GST-PBS containing 10% glycerol). Samples were mixed by aspiration and were then incubated for 8-15 min at 30° C. An aliquot (40 μl) from the reaction mixture was spotted onto a P81 (Whatman) filter, which was immediately immersed in 75 mM phosphoric acid for ≧5 min. Filters were washed 5× for 5 min each in 75 mM phosphoric acid and then 1× for 5 min with acetone before being air dried and counted by liquid scintillation counting in 10 ml ScintiVerse BD (Fisher). […] Activity was determined as ^32P counts incorporated into the acceptor protein per minute. […]
For data set [8], the system named is HO-1. Kind of data set: BVR kinase activity, 32P incorporation into exogenous substrate. It is filed as biochemical, rat. As for the experimental part:
as §1

In data set [9] the test system is HO-2. Described as above. It counts as biochemical, rat. As for the experimental part:
as §1

[10] abbreviates: in the presence of 50 μM BVR or peptide.

B1: BVR: rat biliverdin reductase, SEQ. ID. No. 4, purified from rat liver (Example 3) (protein, listed as Rattus norvegicus)
chain: MDAEPKRKFGVVVVGVGRAGSVRLRDLKDPRSAAFLNLIGFVSRRELGSLDEVRQISLEDALRSQEIDVAYICSESSSHEDYIRQFLQAGKHVLVEYPMTLSFAAAQELWELAAQKGRVLHEEHVELLMEEFEFLRREVLGKELLKGSLRFTASPLEEERFGFPAFSGISRLTWLVSLFGELSLISATLEERKEDQYMKMTVQLETQNKGLLSWIEEKGPGLKRNRYVNFQFTSGSLEEVPSVGVNKNIFLKDQDIFVQKLLDQVSAEDLAAEKKRIMHCLGLASDIQKLCHQKK
Turning to B1, the autophosphorylation entry in [1] was “able to phosphorylate itself”. For the same molecule, in [2], the “specific activity of purified rat liver BVR” value was 3,000 nmol bilirubin/min/mg protein. In addition, the “phosphate transferred by BVR to histone III-S” value in data set [3] is recorded as ~1,000 cpm/min. The “PKC binding (overlay, anti-PKC Western)” value in [4] is listed as “PKC-interactive protein”. Moreover, the “effect on Km of the PKC reaction with respect to ATP” value in data set [5] (BVR 50 μM) is “negligible”. Also, the “dose dependence of PKC activity (^32P into MBP)” value in [5] (PKC preincubated 15 min at 30° C., MBP substrate) was “increased in a dose-dependent manner”. In [5] (setting [10]), the “Vmax of the PKC reaction with respect to ATP” value was 2.9 pmol/min and the “Vmax of the PKC reaction with respect to MBP” value is reported as 4.9 pmol/min. In data set [5] (upon addition of BVR (50 μM), MBP), this molecule yielded a substrate Km of the PKC reaction of 0.16 mg/mL. Further, the phosphoamino acids present result in [6] was “esterified on tyrosine (panel b), serine (panel c), and threonine (panel d) residues”. For the same molecule, the “phosphate transferred by BVR to MBP” value in [7] is listed as ~4,000 cpm/min. For the same molecule, in data set [8], the “HO-1 as substrate for BVR phosphotransferase activity” value is listed as “not substrates”. In [9], the “HO-2 as substrate for BVR phosphotransferase activity” value is “not substrates”.

Values taken from patent US20050287132A1, “Biliverdin reductase fragments and variants, and methods of using biliverdin reductase and such fragments and variants” (University of Rochester, priority 1999, published 2005).
